We go through 21 molecules from patent US20220275049A1, “ANTIGENIC POLYPEPTIDES AND METHODS OF USE THEREOF” (AGENUS INC., priority 2019, published 2022).

What is called Kd is the concentration at which binding is half-saturated.

First the molecules themselves.
B1: RQAsIELPSM (peptide)
peptide: RQA[pS]IELPSM
B2: VLYsPQMAL (peptide)
peptide: VLY[pS]PQMAL
B3: RVAsPTSGV (peptide)
peptide: RVA[pS]PTSGV
B4: GLLGsPVRA (peptide)
peptide: GLLG[pS]PVRA
B5: GPRSAsLLsL (peptide)
peptide: GPRSA[pS]LL[pS]L
B6: KLIDRTEsL (peptide)
peptide: KLIDRTE[pS]L
B7: RTLsHISEA (peptide)
peptide: RTL[pS]HISEA
B8: SMTRsPPRV (peptide)
peptide: SMTR[pS]PPRV
B9: SLFGGsVKL (peptide)
peptide: SLFGG[pS]VKL
B10: RQAsIELPSMAV (peptide)
peptide: RQA[pS]IELPSMAV
B11: VLLsPVPEL (peptide)
peptide: VLL[pS]PVPEL
B12: TPRsPPLGL (peptide)
peptide: TPR[pS]PPLGL
B13: QPRtPSPLVL (peptide)
peptide: QPR[pT]PSPLVL
B14: GPRSASLLsL (peptide)
peptide: GPRSASLL[pS]L
B15: RPTsRLNRL (peptide)
peptide: RPT[pS]RLNRL
B16: RPRPVsPSSL (peptide)
peptide: RPRPV[pS]PSSL
B17: EPRsPSHSM (peptide)
peptide: EPR[pS]PSHSM
B18: RVRsPTRSP (peptide)
peptide: RVR[pS]PTRSP
B19: GPRSAsLLSL (peptide)
peptide: GPRSA[pS]LLSL
B20: RPSsLPDL (peptide)
peptide: RPS[pS]LPDL
B21: TPRsPPLGLI (peptide)
peptide: TPR[pS]PPLGLI

Square brackets hold non-standard residues; d marks the D form. Ends that are not written are not given here. pT = C[C@@H](OP(=O)(O)O)[C@H](N)C(=O)O; pS = N[C@@H](COP(=O)(O)O)C(=O)O

One assay deals with biotinylated HLA-A*02:01 with β2m (human). Nature of the assay: AlphaScreen, peptide titrated on biotinylated HLA + b2m. The settings on record: remark: other sources report otherwise. In general terms: Alpha assays give light when donor and acceptor beads are brought close together.
In the case of B1, the Kd was determined as 20.4 nM. With B2, the Kd came out at 40.5 nM. Take B3: the dissociation constant Kd was 242 nM. The same measure, in the same setting: for B4 the value was 431 nM.

As to B5, the Kd came to 500 nM.

As to B6, the Kd is 260 nM.

On to B7, for which the Kd is 157 nM. Turning to B8, the dissociation constant Kd was 701 nM. Same read-out and setting: in the case of B9 it was 53.9 nM; in that of B10, 14.8 nM. On the same count and under the same terms, for B11 the value was 150 nM.

A further assay concerns the target biotinylated HLA-B*07:02 with β2m (human). Described as above. Conditions: remark: other sources report otherwise.
Turning to B12, the Kd was determined as 75.5 nM.

As for B13, the Kd is 199 nM. On the same count and under the same terms, for B3 the value was 227 nM; for B14, 47.1 nM; for B15, 117 nM. The same measure, in the same setting: in the case of B16 it was 218 nM; in that of B17, 199 nM.

On to B5, for which the Kd was 50 nM. Still for that read-out and setting: for B18 the value was 551 nM.

B19: the Kd came out at 34.1 nM. For the molecule B20, the Kd turned out to be 369 nM.

On to B21, for which the Kd worked out at 91 nM.

The next assay has as its target biotinylated HLA-C*07:01 with β2m (human). Described as above. Conditions: remark: other sources report otherwise.
Take B7: the Kd stood at 380 nM.
